Source: patent US20020095023A1 (published 2002)
Ends that are not written are not given here.

B1: synthetic heptapeptide p2 (peptide)
peptide: WYVYPSM
B2: phage ph4 displaying peptide p4 (peptide)
peptide: WEFPGWM
modifications: also: displayed on phage coat protein
notes: Whole phage particle in the assay; not shown: phage coat protein of the heptamer library (New England Biolabs); linker and coat protein not described
B3: synthetic heptapeptide p4 (peptide)
peptide: WEFPGWM
B4: Recombinant rat HRF (IgE-dependent histamine-releasing factor) (ligand, UniProt P63029 1-172, looked up)
chain: MIIYRDLISHDELFSDIYKIREIADGLCLEVEGKMVSRTEGAIDDSLIGGNASAEGPEGEGTESTVVTGVDIVMNHHLQETSFTKEAYKKYIKDYMKSLKGKLEEQKPERVKPFMTGAAEQIKHILANFNNYQFFIGENMNPDGMVALLDYREDGVTPFMIFFKDGLEMEKC
notes: Expressed in E. coli from pRSET-A and purified on a Ni column; also called recombinant HRF protein; translationally controlled tumor protein; not shown: N-terminal His-tag leader of the pRSET-A vector
B5: phage ph2 displaying peptide p2 (peptide)
peptide: WYVYPSM
modifications: also: displayed on phage coat protein
notes: Whole phage particle in the assay; also called ph2 clone; not shown: phage coat protein of the heptamer library (New England Biolabs); linker and coat protein not described
B6: synthetic heptapeptide p1 (peptide)
peptide: LVTYPLP

How the values were obtained:
[1] = biological target: B4; experiment: competition ELISA on HRF-coated wells, peptide added before phage ph2 (1/25 dilution), anti-M13-HRP
Experimental: (§1) Also, as a negative control, random peptide (ran, amino acid sequence: LMEGCRA) was synthesized. To the wells coated with HRF was added each 30 μl of the peptide solution serially diluted in 6% BSA/PBS from 1000 nM (1000, 100, 10, 1, 0.1, 0.01, 0.001 nM) and the solution was allowed to stand at room temperature for 30 minutes. The 1/25-fold diluted phage solution was added thereto and the whole solution was further allowed to stand for 2 hours. The solution was washed five times with PBST and then, each 100 μl of HRP-conjugated anti-M13 antibodies were added thereto and then, the resulting mixture was allowed to stand for 1 hour. The mixture was washed 6 times with PBST and once with PBS, and thereto was added each 100 μl of peroxydase substrate solution to examine the competition. It can be seen from the above figures that both of the synthetic peptides p2 and p4 bind to HRF competitively with phage clones ph2 and ph4.

BSA = biological target: T1, BSA (bovine, UniProt P02769); experiment: phage ELISA on coated wells, anti-M13-HRP
T1 construct: control coating of the ELISA wells; also called bovine serum albumin
T1 sequence (P02769 25-607 limits assumed): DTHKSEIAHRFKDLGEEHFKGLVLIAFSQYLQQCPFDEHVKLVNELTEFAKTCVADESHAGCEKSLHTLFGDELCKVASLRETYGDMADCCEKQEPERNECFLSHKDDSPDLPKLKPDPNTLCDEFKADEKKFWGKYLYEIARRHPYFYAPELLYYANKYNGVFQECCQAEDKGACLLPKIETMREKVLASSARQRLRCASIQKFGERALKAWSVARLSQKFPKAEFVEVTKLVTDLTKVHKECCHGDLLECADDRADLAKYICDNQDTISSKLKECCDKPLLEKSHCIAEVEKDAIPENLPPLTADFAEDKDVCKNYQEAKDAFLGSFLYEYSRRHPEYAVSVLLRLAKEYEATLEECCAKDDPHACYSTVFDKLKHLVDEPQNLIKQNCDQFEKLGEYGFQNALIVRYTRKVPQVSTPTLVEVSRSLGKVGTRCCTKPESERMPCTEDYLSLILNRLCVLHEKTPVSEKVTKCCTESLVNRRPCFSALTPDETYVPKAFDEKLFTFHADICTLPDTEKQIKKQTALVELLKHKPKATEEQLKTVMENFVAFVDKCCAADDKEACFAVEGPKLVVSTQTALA
Experimental: That is, the phage plaques were transferred to 1 ml of ER2537 culture solution cultivated in SB medium (OD₆₀₀=0.5˜1) and then, cultured in 37° C. incubator (rpm 250) for 5 hours. Each 100 μl of the culture solution was added to 900 μl of SB medium and cultured overnight. The culture solution was centrifuged twice at 14,000 rpm for 5 minutes per centrifugation and the obtained supernatant was used for ELISA.
To plastic wells, each of which was coated with HRF or BSA (control), 50 μl of a solution obtained by diluting each isolated phage solution with the equivalent amount of 6% BSA/PBS, and the resulting mixture was allowed to stand for 2 hours. After washing five times with PBST, 100 μl of HRP-conjugated anti-M13 antibodies (Pharmacia) diluted in 3% BSA/PBS with the ratio of 1:5000 were added thereto and the whole was allowed to stand for 1 hour. After washing six times with PBST and then, once with PBS, 100 μl of peroxydase substrate solution was added thereto. The chromogenicity was measured using ELISA reader at 405 nm. From FIG. 12, it can be seen that the phages ph1, ph2 and ph4, especially ph2 and ph4, specifically bind to HRF.

[2] = biological target: B4; experiment: competition ELISA on HRF-coated wells against phage ph2, anti-M13-HRP
Experimental: as §1
b) In order to test whether or not p1, p2 and p4 bind to the identical site on HRF, the wells were coated with HRF according to the substantially same procedure as in the above a). As shown FIG. 14c, p1, p2 and p4 bound to the identical site on HRF.

[3] = biological target: B4; experiment: competition ELISA on HRF-coated wells, peptide added before phage ph4 (1/25 dilution), anti-M13-HRP
Experimental: as §1

[4] = biological target: T2, (Na,K)ATPase as flowed in the Biacore analysis; experiment: Biacore (SPR); HRF immobilised on CM5 sensor chip, (Na,K)ATPase flowed
T2 construct: domain: large cytoplasmic loop; also called (Na,K)ATPase large cytoplasmic loop
Experimental: Recombinant rat HRF was immobilized on CM5 sensor chip at a concentration of […] in pH 4.0, 10 mM acetate and then, corrected by flowing HBS buffer (0.01 M Hepes, pH 7.4, 0.15 M NaCl, 3 mM EDTA, 0.005% surfactant P20). […] by flowing 50 mM NHS (N-hydroxysuccinimide) and 200 mM EDC(N-ethyl-N-(3-[…])carbodiimide). The binding affinity was measured by flowing (Na,K)ATPase.

Binder | binding result (BSA) | IC50 (read off the curve) [2] [nM] | also measured
B1 | – | – | IC50 (read off the curve) [1]: ~40 nM
B2 | no binding | – | –
B3 | – | ~20 | IC50 (read off the curve) [3]: ~10 nM
B4 | – | – | Kd [4]: 850 nM
B5 | no binding | – | –
B6 | – | ~20 | –
